Test results as given in US20250034268A1 (Innovent, published 2025).

Columns and labels:
[1] = target: T1, human BCMA expressed on the cell surface (human, UniProt Q02223 1-184); assay: flow cytometry on AMO1 cells
T1 construct: The same molecule is used here for hBCMA-CHO GS cells and for the endogenous BCMA of the myeloma lines; also called Human BCMA CHO-S cell; H929
T1 sequence: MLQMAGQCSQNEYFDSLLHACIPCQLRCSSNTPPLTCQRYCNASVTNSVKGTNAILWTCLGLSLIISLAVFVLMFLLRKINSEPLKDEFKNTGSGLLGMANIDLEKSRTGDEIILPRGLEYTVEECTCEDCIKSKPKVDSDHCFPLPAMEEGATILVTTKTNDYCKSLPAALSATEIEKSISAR

[2] = target: T1, human BCMA expressed on the cell surface; assay: flow cytometry on H929 cells
[3] = target: T1, human BCMA expressed on the cell surface; assay: flow cytometry on L363 cells
[4] = target: T1, human BCMA expressed on the cell surface; assay: flow cytometry on U266 cells
[5] = target: T1, human BCMA expressed on the cell surface; assay: flow cytometry on MM.1s cells
[6] = target: T1, human BCMA expressed on the cell surface; assay: flow cytometry on RPMI8226 cells
[7] = target: T1, human BCMA expressed on the cell surface; assay: flow cytometry, 10 nM antibody on H929 cells
[8] = target: T1, human BCMA expressed on the cell surface; assay: flow cytometry, 10 nM antibody on human BCMA CHO-S cells
[9] = target: T2, Cynomolgus monkey BCMA-Fc (cynomolgus monkey, UniProt A0A2K5UD97 1-53); assay: BLI (ForteBio Octet), IgG captured on AHC probe, antigen in solution, avid
T2 construct: also called BCMA from cynomolgus monkey (mobile phase); not shown: Fc part
T2 sequence (A0A2K5UD97 entry or part of it): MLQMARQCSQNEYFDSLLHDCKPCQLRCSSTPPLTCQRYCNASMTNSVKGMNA

Mouse BCMA-Fc = target: T3, Mouse BCMA-Fc (mouse, UniProt O88472 1-49, limits assumed); assay: as above
T3 construct: also called BCMA from mouse (mobile phase); not shown: Fc part

[10] = target: T1, human BCMA expressed on the cell surface; assay: flow cytometry, 10 nM antibody on human BCMA CHO-S cells against CHO-S cells
Human BCMA-IHM = target: T4, Human BCMA-IHM (human, UniProt Q02223 1-54); assay: BLI (ForteBio Octet), IgG captured on AHC probe, antigen in solution, monovalent
T4 construct: also called BCMA from human (mobile phase); not shown: 'IHM' is not explained; it may be a tag
T4 sequence (looked up): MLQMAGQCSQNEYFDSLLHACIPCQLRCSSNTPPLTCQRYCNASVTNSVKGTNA

Human BCMA monomer = target: T5, Human BCMA monomer (human, UniProt Q02223 1-54, limits assumed); assay: as above
T5 construct: also called BCMA from human (mobile phase)
T5 sequence (looked up): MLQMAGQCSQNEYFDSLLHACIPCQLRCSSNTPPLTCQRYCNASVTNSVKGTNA

[11] = target: T1, human BCMA expressed on the cell surface; assay: flow cytometry on hBCMA-CHO-GS cells
[12] = target: T6, mouse BCMA expressed on CHO GS cells (mouse, UniProt O88472 1-185); assay: flow cytometry on mBCMA-CHO-GS cells
T6 construct: whole, on cells; also called mBCMA-CHO GS; mBCMA-CHO-GS
T6 sequence (looked up): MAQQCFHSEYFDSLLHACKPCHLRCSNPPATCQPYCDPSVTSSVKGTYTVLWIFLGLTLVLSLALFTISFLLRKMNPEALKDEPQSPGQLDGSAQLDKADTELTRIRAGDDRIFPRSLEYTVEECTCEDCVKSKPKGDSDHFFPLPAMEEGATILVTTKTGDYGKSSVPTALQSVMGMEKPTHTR

[13] = target: T7, cynomolgus monkey BCMA expressed on CHO GS cells (cynomolgus monkey, UniProt A0A2K5UD97 1-183); assay: flow cytometry on cynoBCMA-CHO-GS cells
T7 construct: whole, on cells; also called cynoBCMA-CHO GS; cynoBCMA-CHO-GS
T7 sequence (A0A2K5UD97 entry or part of it): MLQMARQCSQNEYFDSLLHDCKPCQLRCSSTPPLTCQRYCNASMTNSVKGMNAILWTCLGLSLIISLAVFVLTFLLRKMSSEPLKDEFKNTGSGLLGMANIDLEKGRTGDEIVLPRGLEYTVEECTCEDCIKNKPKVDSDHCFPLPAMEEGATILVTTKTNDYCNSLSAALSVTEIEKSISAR

[14] = target: T8, recombinant human BCMA protein (human, UniProt Q02223 1-54, limits assumed); assay: SPR (Biacore T200), antibody captured by anti-human Fc on CM5 chip, antigen 1.25-40 nM, 1:1 model
T8 construct: The construct is not described
T8 sequence (looked up): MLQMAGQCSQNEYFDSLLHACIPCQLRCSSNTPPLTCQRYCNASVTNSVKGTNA

[15] = target: T9, recombinant cynomolgus monkey BCMA protein (cynomolgus monkey, UniProt A0A2K5UD97 1-53); assay: as above
T9 construct: The construct is not described

[16] = target: T10, recombinant mouse BCMA protein (mouse, UniProt O88472 1-49, limits assumed); assay: as above
T10 construct: The construct is not described
T10 chain (looked up): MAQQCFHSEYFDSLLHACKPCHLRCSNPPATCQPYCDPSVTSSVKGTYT

[17] = target: T11, recombinant rat BCMA protein (rat); assay: as above
T11 construct: The construct is not described

B1: ADI-38484 PG antibody (antibody, human IgG1, kappa, V domains shown)
VH: QVQLVQSGAEVKKPGSSVKVSCKASGGTFSNDVISWVRQAPGQGLEWMGVIIPIFGIANYAQKFQGRVTITADESTSTAYMELSSLRSEDTAVYYCARGRGYYSSWLHDIWGQGTMVTVSS
VL: DIQMTQSPSSLSASVGDRVTITCQASQDITNYLNWYQQKPGKAPKLLIYDASNLETGVPSRFSGSGSGTDFTFTISSLQPEDIATYYCQQAFDLITFGGGTKVEIKR
notes: Expressed in HEK293 cells
For B1, the EC50 [1] was 4.25 nM, the EC50 [2] was about 1.55 nM and the EC50 [3] was 0.934 nM. The EC50 [4] was 2.79 nM, the EC50 [5] was 1.95 nM and the EC50 [6] was 0.428 nM.

B2: anti-BCMA parent antibody ADI-34861 (antibody, V domains shown)
VH: QLQLQESGPGLVKPSETLSLTCTVSGGSISSSSYYWGWIRQPPGKGLEWIGSISYSGSTYYNPSLKSRVTISVDTSKNQFSLKLSSVTAADTAVYYCARDRGDTILDVWGQGTMVTVSS
VL: DIQMTQSPSSLSASVGDRVTITCRASQSISRYLNWYQQKPGKAPKLLIYAASSLQSGVPSRFSGSGSGTDFTLTISSLQPEDFATYYCQQKYFDITFGGGTKVEIK
notes: Tested as IgG (captured by anti-human Fc probe)
B2 was tested, and the “FON, Fold Over Negative” value [7] was 6 fold, the MFI [7] was 1400 and the MFI [8] was 1000. The Kd [9] was 2.11 nM, the Kd (Mouse BCMA-Fc) was 3.68 nM and the “FOB, Fold Over Background” value [10] was 4 fold. The Kd (Human BCMA-IHM) was 51.4 nM and the Kd (Human BCMA monomer) was 17.3 nM.

B3: ADI-38497 PG antibody (antibody, V domains shown)
VH: QLQLQESGPGLVKPSETLSLTCTVSGGSIVSSSYYWTWIRQPPGKGLEWIGSISIAGSTYYNPSLKSRVTISVDTSKNQFSLKLSSVTAADTAVYYCARDRGDQILDVWSQGTMVTVSS
VL: DIQMTQSPSSLSASVGDRVTITCRASQSISRYLNWYQQKPGKAPKLLIYAASSLQSGVPSRFSGSGSGTDFTLTISSLQPEDFATYYCQQKYFDITFGGGTKVEIKR
notes: Expressed in HEK293 cells
With B3 the EC50 [1] was 2.43 nM, the EC50 [2] was about 1.71 nM and the EC50 [3] was 5.11 nM. For the same binder, the EC50 [4] was 1.79 nM, the EC50 [5] was 1.01 nM and the EC50 [6] was 2.12 nM. The EC50 [11] was 1.49 nM, the EC50 [12] was 1.18 nM and the EC50 [13] was 1.69 nM. It also gave a Kd [14] of 0.061 nM, a koff [14] of 1.76e-05 s⁻¹ and a kon [14] of 288000 M⁻¹ s⁻¹. The Kd [15] was 0.0301 nM, the koff [15] was 1.03e-05 s⁻¹ and the kon [15] was 340000 M⁻¹ s⁻¹. For the same binder, the Kd [16] was 1.77 nM, the koff [16] was 0.000872 s⁻¹ and the kon [16] was 492000 M⁻¹ s⁻¹. It also gave a Kd [17] of 83.1 nM, a koff [17] of 0.0831 s⁻¹ and a kon [17] of 1e+06 M⁻¹ s⁻¹.

B4: antibody ADI-38491 (antibody, V domains shown)
VH: QLQLQESGPGLVKPSETLSLTCTVSGGSIVSSSYYWTWIRQPPGKGLEWIGSISIAGSTYYNPSLKSRVTISVDTSKNQFSLKLSSVTAADTAVYYCARDRGDTILDVWGQGTMVTVSS
VL: DIQMTQSPSSLSASVGDRVTITCRASQSISRYLNWYQQKPGKAPKLLIYAASSLQSGVPSRFSGSGSGTDFTLTISSLQPEDFATYYCQQKYFDITFGGGTKVEIK
With B4 the “FON, Fold Over Negative” value [7] was 5 fold, the MFI [7] was 1100 and the MFI [8] was 996. For the same binder, the Kd [9] was 1.27 nM, the Kd (Mouse BCMA-Fc) was 3.04 nM and the “FOB, Fold Over Background” value [10] was 4 fold. It also gave a Kd (Human BCMA-IHM) of 2.62 nM and a Kd (Human BCMA monomer) of 1.02 nM.

B5: antibody ADI-38497 (antibody, V domains shown)
VH: QLQLQESGPGLVKPSETLSLTCTVSGGSIVSSSYYWTWIRQPPGKGLEWIGSISIAGSTYYNPSLKSRVTISVDTSKNQFSLKLSSVTAADTAVYYCARDRGDQILDVWSQGTMVTVSS
VL: DIQMTQSPSSLSASVGDRVTITCRASQSISRYLNWYQQKPGKAPKLLIYAASSLQSGVPSRFSGSGSGTDFTLTISSLQPEDFATYYCQQKYFDITFGGGTKVEIK
B5 was tested, and the “FON, Fold Over Negative” value [7] was 26 fold, the MFI [7] was 5670 and the MFI [8] was 2320. For the same binder, the Kd [9] was 0.602 nM, the Kd (Mouse BCMA-Fc) was 0.503 nM and the “FOB, Fold Over Background” value [10] was 8 fold. The Kd (Human BCMA-IHM) was 1.02 nM and the Kd (Human BCMA monomer) was 0.621 nM.

B6: anti-BCMA parent antibody ADI-34857 (antibody, V domains shown)
VH: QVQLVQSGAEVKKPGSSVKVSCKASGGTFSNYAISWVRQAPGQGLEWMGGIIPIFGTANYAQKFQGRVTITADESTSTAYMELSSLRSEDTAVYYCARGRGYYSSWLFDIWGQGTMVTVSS
VL: DIQMTQSPSSLSASVGDRVTITCQASQDITNYLNWYQQKPGKAPKLLIYDASNLETGVPSRFSGSGSGTDFTFTISSLQPEDIATYYCQQAFDLITFGGGTKVEIK
notes: as for B2
In the case of B6, the “FON, Fold Over Negative” value [7] is reported as 10 fold, the MFI [7] is reported as 2280 and the MFI [8] is reported as 877. The Kd [9] was 1.47 nM, the “FOB, Fold Over Background” value [10] was 3 fold and the Kd (Human BCMA-IHM) was 44 nM. For the same binder, the Kd (Human BCMA monomer) was 35.9 nM.

B7: antibody ADI-38481 (antibody, V domains shown)
VH: QVQLVQSGAEVKKPGSSVKVSCKASGGTFSNDVISWVRQAPGQGLEWMGVIIPIFGIANYAQKFQGRVTITADESTSTAYMELSSLRSEDTAVYYCARGRGYYSSWLLDIWGQGTMVTVSS
VL: DIQMTQSPSSLSASVGDRVTITCQASQDITNYLNWYQQKPGKAPKLLIYDASNLETGVPSRFSGSGSGTDFTFTISSLQPEDIATYYCQQAFDLITFGGGTKVEIK
In the case of B7, the “FON, Fold Over Negative” value [7] is reported as 31 fold, the MFI [7] is reported as 6660 and the MFI [8] is reported as 2620. For the same binder, the Kd [9] was 0.897 nM, the Kd (Mouse BCMA-Fc) was 2.44 nM and the “FOB, Fold Over Background” value [10] was 10 fold. It also gave a Kd (Human BCMA-IHM) of 0.496 nM and a Kd (Human BCMA monomer) of 0.1 nM.

B8: antibody ADI-38484 (antibody, V domains shown)
VH: QVQLVQSGAEVKKPGSSVKVSCKASGGTFSNDVISWVRQAPGQGLEWMGVIIPIFGIANYAQKFQGRVTITADESTSTAYMELSSLRSEDTAVYYCARGRGYYSSWLHDIWGQGTMVTVSS
VL: DIQMTQSPSSLSASVGDRVTITCQASQDITNYLNWYQQKPGKAPKLLIYDASNLETGVPSRFSGSGSGTDFTFTISSLQPEDIATYYCQQAFDLITFGGGTKVEIK
With B8 the “FON, Fold Over Negative” value [7] was 35 fold, the MFI [7] was 7720 and the MFI [8] was 2720. For the same binder, the Kd [9] was 1.07 nM, the Kd (Mouse BCMA-Fc) was 0.85 nM and the “FOB, Fold Over Background” value [10] was 11 fold. For the same binder, the Kd (Human BCMA-IHM) was 0.539 nM and the Kd (Human BCMA monomer) was 0.0794 nM.
